Assay results taken from patent WO2018095428A1 (dated 2018).
Changes are numbered by the printed parent chain.

B1: chimeric antibody ch-167 (antibody, V domains shown)
VH: QVQLQQPGAELVRPGSSVKLSCKASGYTFTSYWMHWVKQRPIQGLEWVGNIDPSDSETHYNQKFKDKATLTVDKSSSTAYMQLSSLTSEDSAVYYCARWGYLGRSAMDYWGQGTSVTVSS
VL: DVQITQSPSYLAASPGETITINCRTSKSISKFLAWYQEKPGKTHKLLIYSGSTLQSGIPSRFSGSGSGTDFTLTISSLEPEDFAMYYCQQHNEYPWTFGGGTKLEIK
B2: hu167-1 (antibody, V domains shown)
VH: QVQLVQSGAEVKKPGASVKVSCKASGYTFTSYWMHWVRQAPGQGLEWMGNIDPSDSETHYNQKFKDRVTMTRDTSISTAYMELSRLRSDDTAVYYCARWGYLGRSAMDYWGQGTTVTVSS
VL: DIQMTQSPSSLSASVGDRVTITCRTSKSISKFLAWYQQKPGKAPKLLIYSGSTLQSGVPSRFSGSGSGTDFTLTISSLQPEDFATYYCQQHNEYPWTFGGGTKVEIK
B3: chimeric antibody ch-055 (antibody, V domains shown)
VH: QVLLQQSGPELVQPGASVKISCKASGYSFTSSYLHWVKQRPGQGLDWIGWIYPESGNTKYNERFKGKATLTADTSSSTAYMQLSSLTSEDSAVYYCSRRGDVFFAYWGQGTTLTVSS
VL: DIVMTQSPSYLTVTAGEKVTMSCKSSQSLLTSGKQKNYLTWYQQKPGQPPKLLIYWASTRESGVPERFRGSGSGTDFTLTISSVQAEDLAVYYCQNDYSYPLTFGAGTKLELN
B4: hu055-1 (antibody, V domains shown)
VH: QVQLVQSGAEVKKPGASVKVSCKASGYTFTSSYLHWVRQAPGQRLEWMGWIYPESGNTKYNERFKGRVTITRDTSASTAYMELSSLRSEDTAVYYCARRGDVFFAYWGQGTTVTVSS
VL: DIVMTQSPDSLAVSLGERATINCKSSQSLLTSGKQKNYLTWYQQKPGQPPKLLIYWASTRESGVPDRFSGSGSGTDFTLTISSLQAEDVAVYYCQNDYSYPLTFGQGTKLEIK
B5: hu055-5 (antibody, V domains shown)
VH: B4 VH with E46D, M48I, V68A, I70L, R72A
VL: DIVMTQSPDSLAVSLGERATINCKSSQSLLTSGKQKNYLTWYQQKPGQPPKLLIYWASTRESGVPDRFSGSGSGTDFTLTISSLQAEDVAVYYCQNDYSYPLTFGQGTKLEIKR
B6: hu055-8 (antibody, V domains shown)
VH: B4 VH
VL: B4 VL with D66E
B7: hu167-33 (antibody, V domains shown)
VH: B2 VH
VL: B2 VL with I2V, M4I
B8: hu167-31 (antibody, V domains shown)
VH: B2 VH
VL: B2 VL with I2V
B9: hu167-32 (antibody, V domains shown)
VH: B2 VH
VL: B2 VL with M4I

What follows are molecules tested against natural CD47 on the surface of CCRF-CEM cells (UniProt Q08722) (assay: flow cytometry on CCRF-CEM cells, sample at 1 ug/ml, Alexa Fluor 488 goat anti-human (H+L); blank control 30.0).
For IgG4-Fc control, the flow cytometry binding signal (流式结合信号) was 65.1.

These molecules were tested against T1, human CD47-his (Sino Biological, CAT#12283-HCCH-50) (human, UniProt Q08722 19-139, limits assumed) (assay: SPR (Biacore): antibody captured with human Fab capture kit on CM5 chip, human CD47-his flowed over).
T1 construct: Bought protein used as analyte in Biacore; also called 人CD47-his; human CD47-his antigen; not shown: His tag of the bought protein
In the case of B1, the “KD fold difference (against ch-167)” value is reported as 1, the Kd is reported as 0.325 nM and the koff is reported as 0.000558 s⁻¹. The kon was 1.72e+06 M⁻¹ s⁻¹. With B2 the “KD fold difference (against ch-167)” value was 2.04, the Kd was 0.664 nM and the koff was 0.000991 s⁻¹. The kon was 1.49e+06 M⁻¹ s⁻¹. In the case of B3, the “KD fold difference (against ch-055)” value is reported as 1, the Kd is reported as 0.167 nM and the koff is reported as 0.000389 s⁻¹. It also gave a kon of 2.32e+06 M⁻¹ s⁻¹. In the case of B4, the “KD fold difference (against ch-055)” value is reported as 3.5, the Kd is reported as 0.585 nM and the koff is reported as 0.000976 s⁻¹. For the same molecule, the kon was 1.67e+06 M⁻¹ s⁻¹. In the case of B5, the “KD fold difference (against ch-055)” value is reported as 1.1, the Kd is reported as 0.182 nM and the koff is reported as 0.000382 s⁻¹. It also gave a kon of 2.1e+06 M⁻¹ s⁻¹. B6 was tested, and the “KD fold difference (against ch-055)” value was 3.7, the Kd was 0.617 nM and the koff was 0.000987 s⁻¹. The kon was 1.6e+06 M⁻¹ s⁻¹.

The molecules below were run against natural CD47 on the surface of CCRF-CEM cells (UniProt Q08722) (assay: flow cytometry on CCRF-CEM cells, antibody at 1 ug/ml, Alexa Fluor 488 goat anti-human (H+L); blank control 30.0).
Work on B7 yielded a flow cytometry binding signal (流式结合信号) of 27800.

Each molecule was assayed against human CD47-his (Sino Biological, CAT#12283-HCCH-50) (human) (UniProt Q08722) (assay: SPR (Biacore), KD compared with hu167-4).
In the case of B8, the KD ratio against hu167-4 is reported as 1.3. B9 gave a KD ratio against hu167-4 of 1.2. Molecule B7 has a KD ratio against hu167-4 of 0.98.
